Reference: the supplement of paper PMC9732359
± gives the uncertainty stated by the source.

Experiment: protein stability index of a GFP-peptide fusion (yeast GPS) (PSI 1-4); higher = more stable; sorted into four equal gates, so the index is relative within each strain
Summary of the method: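 Sequencing reads from sorted gates were used to score each peptide. The library consisted of tiled 17-residue yeast protein peptides fused downstream of GFP on a Cherry-expressing plasmid, pooled and carried in yeast. Mid-log cultures in leucine-free medium were split into four equal gates by GFP/Cherry ratio, and each gate's plasmids were PCR-amplified and Illumina-sequenced. The protein stability index adds up, over all gates, the read frequency multiplied by the gate number.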

Sequence | protein stability index (doa10∆) | protein stability index (pdr5∆) | protein stability index (san1∆) | protein stability index (ubr1∆)
TKPSLRKASCIWLLSYI [ECM29] | 1.75 ± 0.054 | 1.88 ± 0.051 | 1.86 ± 0.077 | 1.86 ± 0.038
HKQELQDLILDLKKKLN [SMC4] | 2.55 ± 0.078 | 2.75 ± 0.16 | 2.31 ± 0.062 | 1.75 ± 0.058
KLLKEKVKLFHGILDDL [MED2] | 3.1 ± 0.12 | 2.93 ± 0.13 | 3.09 ± 0.06 | 2.97 ± 0.14
LKKLQSDIESANNQEYD [SMC1] | 3.19 ± 0.076 | 3.2 ± 0.097 | 3.16 ± 0.062 | 3.13 ± 0.076
VDENGDPIWQHQSLGPD [RET1] | 3.25 ± 0.056 | 3.21 ± 0.081 | 3.33 ± 0.042 | 3.27 ± 0.084
DIYMHDVNSASKSESDS [RRP4] | 3.59 ± 0.12 | 3.48 ± 0.1 | 3.15 ± 0.098 | 3.22 ± 0.066
FYQGKTGVVYNVTKSSV [RPL21A] | 2.69 ± 0.11 | 2.58 ± 0.079 | 2.42 ± 0.086 | 2.65 ± 0.071
NSLAVRGKDCTVVISQK [SCL1] | 2.64 ± 0.075 | 2.9 ± 0.062 | 2.94 ± 0.051 | 2.72 ± 0.045
TRVRLPSGAKKVISSDA [RPL2A] | 3.25 ± 0.092 | 3.27 ± 0.084 | 3.26 ± 0.049 | 3.26 ± 0.072
YDPSIGIFGMDFYVVMN [RPL11A] | 2.26 ± 0.05 | 2.24 ± 0.052 | 2.31 ± 0.055 | 2.55 ± 0.037
LRDDTLPKAWISLAVEG [COR1] | 2.55 ± 0.059 | 1.9 ± 0.08 | 1.78 ± 0.12 | 1.44 ± 0.037
DELDAIGTKRFDSEKSG [RPT5] | 2.46 ± 0.066 | 1.66 ± 0.058 | 2.25 ± 0.086 | 1.99 ± 0.057
IIKYPVAFDNINTHIET [SNF2] | 2.45 ± 0.14 | 2.71 ± 0.11 | 2 ± 0.16 | 1.85 ± 0.067
HEKIEDEDEDNDLDEDD [RPN4] | 3.56 ± 0.2 | 3.44 ± 0.09 | 3.55 ± 0.086 | 3.45 ± 0.11
LTALGKEKEKEREEAEK [MED2] | 1.3 ± 0.23 | 1.43 ± 0.16 | – | 1.32 ± 0.15
LDQVGVPKSIAKTLTYP [RPO21] | 2.74 ± 0.064 | 2.83 ± 0.051 | 2.65 ± 0.043 | 2.99 ± 0.06
ALLTVLKALSHHYNPKT [BRR2] | 2.28 ± 0.07 | 2.25 ± 0.051 | 1.91 ± 0.081 | 2.41 ± 0.062
IDQAHVSEITKLKFFPS [RPN14] | 3.12 ± 0.077 | 3.01 ± 0.071 | 3.12 ± 0.054 | 3.28 ± 0.053
QEGLAKFGACVAQGIMN [RPN2] | 1.79 ± 0.058 | 1.75 ± 0.042 | 1.88 ± 0.14 | 1.58 ± 0.051
LAAMAVLESHWKQDLTK [PUP1] | 3.24 ± 0.16 | 3.24 ± 0.14 | 2.48 ± 0.21 | 3.71 ± 0.18
KFRSSILRKSFDFLMNM [RPN2] | 2.1 ± 0.13 | 2.4 ± 0.1 | 2.04 ± 0.12 | 2.4 ± 0.072
RRFKNGFQTGSAKATSA [RPL37B] | 3.02 ± 0.066 | 3.08 ± 0.079 | 3.39 ± 0.09 | 3.18 ± 0.06
VINKLDRLILDLKLPPM [SNU114] | 2.05 ± 0.12 | 1.31 ± 0.12 | 1.06 ± 0.23 | 2.14 ± 0.1
KKPLSMALNKVLITDHI [CDC53] | 1.93 ± 0.04 | 2.24 ± 0.038 | 2.18 ± 0.05 | 2.12 ± 0.028
AENDVIEATDLGNIASS [BRR2] | 3.05 ± 0.075 | 3.17 ± 0.086 | 3.19 ± 0.064 | 3.27 ± 0.056
TQPKSSSSMDMQANTNA [SSN3] | 2.55 ± 0.06 | 2.43 ± 0.046 | 3.13 ± 0.041 | 2.45 ± 0.039
AQAQAQAQAQAQAQAQA [GAL11] | 2.95 ± 0.03 | 3.23 ± 0.035 | 2.98 ± 0.026 | 3.09 ± 0.033

Sequence | protein stability index (doa10∆) | protein stability index (pdr5∆) | protein stability index (san1∆) | protein stability index (ubr1∆)
DIDVTIVSKEYEKNFEA [ESC2] | 3.27 ± 0.15 | 3.06 ± 0.14 | 3.24 ± 0.088 | 3.42 ± 0.16
IQEANSVDMSALKDPQT [RIP1] | – | 3.43 ± 0.21 | – | 3.26 ± 0.077
LVSEKIINSTALMKEKD [RPC82] | 3.19 ± 0.17 | 3.11 ± 0.081 | 3.11 ± 0.084 | 3.27 ± 0.092
YSEEPREKVRKLSQYVQ [FAS2] | – | – | – | 3.16 ± 0.26
VANVKDLETLTMHTKTY [RPL32] | 3.08 ± 0.13 | 3.01 ± 0.11 | 2.98 ± 0.075 | 2.95 ± 0.077
DSIYTKPVKVALIFIFF [YJL039C/NUP192] | 1.69 ± 0.039 | 1.68 ± 0.033 | 1.5 ± 0.058 | 1.68 ± 0.023
MLVKAVANSTKAAFIRV [RPT3] | 1.97 ± 0.05 | 1.5 ± 0.047 | 1.38 ± 0.11 | 1.27 ± 0.036
QPGYADLEHKEDCVEEF [QCR6] | 2.42 ± 0.058 | 2.56 ± 0.068 | 2.52 ± 0.074 | 2.68 ± 0.044
QLGPQTPAFNTAILQRQ [ECM29] | 1.39 ± 0.21 | 1.49 ± 0.17 | 1.41 ± 0.17 | 1.67 ± 0.21
ADTKAPTFTFGSSALAD [YLR335W/NUP2] | 3.25 ± 0.069 | 3.01 ± 0.053 | 3.08 ± 0.048 | 3.11 ± 0.033
SYPVNGSQKTFEIDDEH [RPS6A] | 2.98 ± 0.13 | 2.72 ± 0.12 | 2.81 ± 0.12 | 2.99 ± 0.12
HSNLEKISNSKLLSLLR [SIR4] | 2.4 ± 0.063 | 2.65 ± 0.052 | 2.5 ± 0.051 | 2.48 ± 0.047
DKKYKGLTTVWLLSALG [REC8] | 2.24 ± 0.054 | 2.38 ± 0.063 | 2.04 ± 0.084 | 2.29 ± 0.039
SLRTPIAPKITPKVVRS [SEC65] | 3.16 ± 0.093 | 3.05 ± 0.063 | 2.87 ± 0.1 | 3.17 ± 0.059
KDAVDYSKIPNILSNKP [RRP6] | 1.51 ± 0.096 | 1.97 ± 0.093 | 1.58 ± 0.21 | 1.58 ± 0.049
DRREKAERTMSKKETKL [SMC2] | 3.31 ± 0.13 | 3.36 ± 0.092 | 3.19 ± 0.12 | 3.39 ± 0.099
NLKDLNNVKQMVMAGSK [RPO21] | 1.81 ± 0.12 | 1.95 ± 0.12 | – | 1.92 ± 0.077
GHTLINNYKDLLAVAIA [RPP0] | 1.19 ± 0.17 | 1.61 ± 0.24 | 1.31 ± 0.17 | 1.18 ± 0.16
KKVVLRLECVKCKTRAQ [RPL42A] | 2.3 ± 0.12 | 2.03 ± 0.095 | 2.4 ± 0.16 | 2.09 ± 0.047
KIADNISKDENEDQFLE [YDL116W/NUP84] | 2.92 ± 0.14 | 2.98 ± 0.13 | 2.86 ± 0.13 | 3.33 ± 0.1
EKSTQLQQKHELDTASR [YGR119C/NUP57] | 2.95 ± 0.044 | 3.06 ± 0.039 | 2.85 ± 0.029 | 3.21 ± 0.031
VIAKLNHNQFECKGCDN [RPB2] | 2.93 ± 0.054 | 3.14 ± 0.067 | 3 ± 0.05 | 3.01 ± 0.097
VDVNNKFIALCEQQPSQ [SIN4] | 2.82 ± 0.051 | 2.96 ± 0.05 | 3.18 ± 0.052 | 3 ± 0.059
TLLIAIRGSNRDLKPSN [YML103C/NUP188] | 1.92 ± 0.18 | 2.41 ± 0.13 | 2.52 ± 0.098 | 2.8 ± 0.087
NNNEDNENNNNSSEKNN [MED2] | 3.11 ± 0.052 | 3.37 ± 0.043 | 3.2 ± 0.039 | 3.15 ± 0.048
RIGVLQARMMQQQSADH [NSL1] | 2.88 ± 0.062 | 3.06 ± 0.057 | 3.06 ± 0.046 | 2.96 ± 0.042
ESNNKKYPIFTGESWVK [YDL088C/ASM4] | 2.73 ± 0.062 | 2.59 ± 0.081 | 2.33 ± 0.083 | 2.74 ± 0.06
